In patent US11203633B2, “Polynucleotides encoding antibodies or antigen binding fragments thereof that bind pseudomonas perv” (priority 2011, dated 2021):

What was measured:
[1] = tested on: P. aeruginosa strain 6077 (O11-cytotoxic); assay: Corneal infection (ocular keratitis) model in mice; assay type: in vivo, Pseudomonas aeruginosa
[2] = tested on: luminescent P. aeruginosa serogroup 011 strain (9882-80.lux); assay: OPK assay, 9882-80.lux; assay type: cell-based, Pseudomonas aeruginosa; settings: strain 9882-80 (O11); FIG. 2B
Procedure: (§1) This example describes the evaluation of prioritized human IgG1 antibodies to promote OPK of P. aeruginosa. […] OPK assays were performed as described in (DiGiandomenico, A., et al., Infect Immun 72, 7012-7021 (2004)), with modifications. Briefly, assays were performed in 96-well plates using 0.025 ml of each OPK component; P. aeruginosa strains; diluted baby rabbit serum; differentiated HL-60 cells; and monoclonal antibody. In some OPK assays, luminescent P. aeruginosa strains, which were constructed as described (Choi, K. H., et al., Nat Methods 2, 443-448 (2005)), were used. Luminescent OPK assays were performed as described above but with determination of relative luciferase units (RLUs) using a Perkin Elmer ENVISION Multilabel plate reader (Perkin Elmer).
The ability of the WapR-004 and Cam-003 antibodies to mediate OPK activity against another clinically relevant 0-antigen serotype strain, 9882-80.lux, was evaluated.

[3] = tested on: P. aeruginosa strains (PAO1, 33356, 6294, 6077, 6206, PA103A); assay: Acute pneumonia model in mice, survival; assay type: in vivo, Pseudomonas aeruginosa; settings: strain 6077 (O11) 8×10^5 or 6×10^5 CFU; 5 and 1 mg/kg; FIG. 6E-F
Procedure: (§2) Antibodies or PBS were administered 24 hours before infection in each model. P. aeruginosa acute pneumonia, keratitis, and thermal injury infection models were performed as described (DiGiandomenico, A., et al., Proc Natl Acad Sci USA 104, 4624-4629 (2007)), with modifications. In the acute pneumonia model, BALB/c mice (The Jackson Laboratory) were infected with P. aeruginosa strains suspended in a 0.05 ml inoculum. In the thermal injury model, CF-1 mice (Charles River) received a 10% total body surface area burn with a metal brand heated to 92° C. for 10 seconds. Animals were infected subcutaneously with P. aeruginosa strain 6077 at the indicated dose. For organ burden experiments, acute pneumonia was induced in mice followed by harvesting of lungs, spleens, and kidneys 24 hours post-infection for determination of CFU.
The in vivo effect of administration of an anti-PcrV antibodies was studied in mice using an acute pneumonia model. Groups of mice were treated with either increasing concentrations of the V2L2 antibody, a positive control anti-PcrV antibody (mAb166), or a negative control (R347), as shown in FIG. 13 (A-B). Groups of mice were also treated with either increasing concentrations of the V2L2 antibody, the PcrV antibody PcrV-02, or a negative control (R347), as shown in FIG. 13 (C-D). Twenty-four hours after treatment, all mice were infected with 5×10^7 CFU (C) Pseudomonas aeruginosa 6294 (06) or (D) PA103A (O11).
Groups of mice were treated with either increasing concentrations of the 11A6, 3G5 or V2L7, the same concentrations of 29D2, 1F3, 1E6, V2L2, LE10, SH3, 4A8, 2H3, or 21F1, increasing concentrations of the 29D2, increasing concentrations of the V2L2, the PcrV antibody PcrV-02, or a negative control (R347), as shown in FIG. 13 (E-H). Mice were injected intraperitoneally (IP) with mAbs 24 hours prior to intranasal infection with Pseudomonas strain 6077 (1×10^6 CFU/animal).

[4] = tested on: P. aeruginosa strains (PAO1, 33356, 6294, 6077, 6206); assay: Acute pneumonia model in mice, organ burden (CFU in lung, spleen, kidneys); assay type: in vivo, Pseudomonas aeruginosa
Procedure: as §2
Organ burden of Pseudomonas-infected mice was also studied in response to administration of V2L2. FIG. 14 (A) Mice were treated with either 1 mg/kg R347 (control), or 1 mg/kg, 0.2 mg/kg, or 0.07 mg/kg of V2L2 and then were infected intranasally with 1.2×10^6 cfu of Pseudomonas 6206. FIG. 14 (B) Mice were also treated with either 15 mg/kg R347 (negative control); 15.0 mg/kg, 5.0 mg/kg, or 1.0 mg/kg mAb166 (positive control); or 5.0 mg/kg, 1.0 mg/kg, or 0.2 mg/kg V2L2 and then were infected intranasally with 5.5×10^6 cfu of Pseudomonas 6206.
The in vivo effect of combination administration of anti-Psl and anti-PcrV binding domains was further studied in mice using the antibodies V2L2 and WapR-004 (RAD). Groups of mice were treated with R347 (2.1 mg/kg—negative control), V2L2 (0.1 mg/kg), W4-RAD (0.5 mg/kg), or V2L2/W4 combination (either 0.1, 0.5, 1.0 or 2.0 mg/kg each). Twenty-four hours post-administration of antibody, all mice were infected with an inoculum containing 5.25×10^5 cfu 6206 (O11-ExoU+). Twenty-four hours post infection, lungs, spleens, and kidneys were harvested, homogenized, and plated for colony forming unit (CFU) identification per gram of tissue.

[5] = tested on: luminescent P. aeruginosa serogroup 05 strain (PAO1.lux); assay: Opsonophagocytic killing (OPK) assay, PAO1.lux; assay type: cell-based, Pseudomonas aeruginosa; settings: purified human IgG1 mAbs from phage panning; FIG. 2A
Procedure: as §1

[6] = tested on: P. aeruginosa strains 6206 and 6294; assay: Acute pneumonia model in mice, histological examination of lung tissue; assay type: in vivo, Pseudomonas aeruginosa
[7] = 6294 (06) and 6206 (O11), FIG. 7E-F
[8] = Table 5, 6206 5.25×10^5 cfu, R347 2.1 mg/kg, V2L2 0.1 mg/kg, WapR-004 0.5 mg/kg
[9] = Table 6A, strain 6294 1.33×10^7 CFU, 0.2 mg/kg (combination 0.1 mg/kg ea)
[10] = Table 6B, strain 6294 1.7×10^7 CFU, 0.2 mg/kg (combination 0.1 mg/kg ea)
[11] = Table 7, strain 6206 9.25×10^5 CFU, 0.2 mg/kg (combination 0.1 mg/kg ea)

B1: WapR-004: anti-Psl human IgG1 monoclonal antibody; VH SEQ ID NO:11, VL SEQ ID NO:12 (antibody, V domains shown)
VH: EVQLLESGPGLVKPSETLSLTCNVAGGSISPYYWTWIRQPPGKGLELIGYIHSSGYTDYNPSLKSRVTISGDTSKKQFSLHVSSVTAADTAVYFCARGDWDLLHALDIWGQGTLVTVSS
VL: EIVLTQSPSSLSTSVGDRVTITCRASQSIRSHLNWYQQKPGKAPKLLIYGASNLQSGVPSRFSGSGSGTDFTLTISSLQPEDFATYYCQQSYSFPLTFGGGTKLEIK
modifications: human IgG1 constant regions not cited; WapR-004 VH; WapR-004 & WarR-004RAD VL
[1]; 6077, antibody 24 hours prior to infection, FIG. 8A-D, F-G
  corneal pathology and bacterial counts vs negative control-treated animals: significantly less pathology and reduced bacterial counts in total eye homogenates
[1]; FIG. 8F-G
  Cam-003 (45 mg/kg) vs. WapR-004 (15 mg/kg), Mann-Whitney U-test P: 0.0025
  Cam-003 (45 mg/kg) vs. WapR-004 (45 mg/kg), Mann-Whitney U-test P: 0.018
  WapR-004 (45 mg/kg) vs. WapR-004 (15 mg/kg), Mann-Whitney U-test P: 0.1331
[2]
  OPK activity: OPK activity extends to strain 9882-80 (O11)
[3]
  survival: significant concentration-dependent survival
[4]; 6206 (O11-ExoU+) 5.25×10^5 cfu, V2L2 0.1 mg/kg, W4-RAD 0.5 mg/kg, FIG. 15
  organ burden: effective in lowering organ burden
[4]; 6206, kidney, 5 mg/kg, FIG. 7F
  viable CFU vs. R347, Mann-Whitney U-test P: 0.0268
[4]; 6206, kidney, 15 mg/kg, FIG. 7F
  viable CFU vs. R347, Mann-Whitney U-test P: 0.0208
[4]; 6206, lung, 1 mg/kg, FIG. 7F
  viable CFU vs. R347, Mann-Whitney U-test P: 0.0079
[4]; 6206, lung, 5 mg/kg, FIG. 7F
  viable CFU vs. R347, Mann-Whitney U-test P: 0.0006
[4]; 6206, spleen, 1 mg/kg, FIG. 7F
  viable CFU vs. R347, Mann-Whitney U-test P: 0.0047
[4]; 6206, spleen, 5 mg/kg, FIG. 7F
  viable CFU vs. R347, Mann-Whitney U-test P: 0.0261
[4]; 6206, spleen, 15 mg/kg, FIG. 7F
  viable CFU vs. R347, Mann-Whitney U-test P: 0.0059
[4]; [7]
  dissemination to the spleen and kidneys: effective at reducing P. aeruginosa dissemination to the spleen and kidneys
  organ burden: reduced organ burden
[4]; 6294 ~1×10^7 CFU, lung, 1 mg/kg, FIG. 7E
  viable CFU vs. R347, Mann-Whitney U-test P: 0.0002
[4]; 6294 ~1×10^7 CFU, lung, 5 mg/kg, FIG. 7E
  viable CFU vs. R347, Mann-Whitney U-test P: 0.0004
[4]; 6294 ~1×10^7 CFU, lung, 15 mg/kg, FIG. 7E
  viable CFU vs. R347, Mann-Whitney U-test P: 0.0011
[4]; 6294 ~1×10^7 CFU, spleen, 5 mg/kg, FIG. 7E
  viable CFU vs. R347, Mann-Whitney U-test P: 0.0014
[5]
  OPK activity (killing of PAO1.lux): superior OPK activity
[6]; [8]
  Inflammatory Infiltrate: PMN 2-3+
  Involved Lung Surface Area: 50%
  Overall Impression: Broncho interstitial pneumonia
[6]; Table 6A, BALB/c mice, strain 6294 1.33×10^7 CFU, 0.2 mg/kg (combination 0.1 mg/kg ea)
  Overall Impression: Broncho interstitial pneumonia
[6]; [9]
  Hemorrhage (extent): Extensive
  Inflammatory Infiltrate: PMN 3+
  Involved Lung Surface Area: (57%), mod epithelial injury,
[6]; Table 6B, BALB/c mice, strain 6294 1.7×10^7 CFU, 0.2 mg/kg (combination 0.1 mg/kg ea)
  Overall Impression: Broncho interstitial pneumonia
[6]; [10]
  Bacteria: Neg-2+
  Inflammatory Infiltrate: PMN 2+
  Involved Lung Surface Area: (40%), mod epithelial injury,
[6]; Table 7, BALB/c mice, strain 6206 9.25×10^5 CFU, 0.2 mg/kg (combination 0.1 mg/kg ea)
  Overall Impression: Broncho interstitial pneumonia
[6]; [11]
  Bacteria: Neg-1+
  Inflammatory Infiltrate: PMN 2+
  Involved Lung Surface Area: (36%), mild epithelial injury,
